These results are taken from patent US20210206841A1 (RESEARCH INSTITUTE AT NATIONWIDE CHILDREN S HOSPITAL, published 2021).

The target in experiment [1] is T1, tip-chimeric peptide IhfA5-mIhfB4NTHI (nontypeable Haemophilus influenzae …).
T1 construct: also called IHF(NTHI) tip chimeric peptide; IHFNTHI tip chimeric peptide
T1 peptide: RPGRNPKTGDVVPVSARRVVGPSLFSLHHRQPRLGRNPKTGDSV
As to the kind of experiment: SPR Biacore 3000, peptide immobilized, HuMab as analyte. Background: Surface plasmon resonance follows binding to a sensor surface in real time, without labels.

For experiment [2], the target named is T1, tip-chimeric peptide IhfA5-mIhfB4NTHI. As to the kind of experiment: direct binding ELISA: tip chimeric peptide coated at 2 ug/mL, antibody titrated 1:3 in 8 points, anti-human IgG Fc-HRP, absorbance at 450 nm [panel B]. For orientation: ELISA stands for enzyme-linked immunosorbent assay.
For experiment [3] the target is unchanged. Put plainly: SPR Biacore 3000, HuMab immobilized, peptide as analyte.
Experiment [4] addresses T2, native IHFNTHI (integration host factor of nontypeable Haemophilus influenzae) (nontypeable Haemophilus influenzae …, UniProt P43723 1-96; P43724 1-94).
T2 construct: also called NTHI IHF
T2 sequence 1: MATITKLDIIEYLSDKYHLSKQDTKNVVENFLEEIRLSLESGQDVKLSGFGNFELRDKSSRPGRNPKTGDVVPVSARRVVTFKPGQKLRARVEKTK
T2 sequence 2: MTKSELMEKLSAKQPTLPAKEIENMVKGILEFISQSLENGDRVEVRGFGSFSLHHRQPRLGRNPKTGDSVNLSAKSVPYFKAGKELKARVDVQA
As to the kind of experiment: SPR Biacore 3000, HuMab immobilized, IHFNTHI as analyte.

The target of experiment [5] is T1, tip-chimeric peptide IhfA5-mIhfB4NTHI. Put plainly: direct ELISA #2, peptide coated (curves reaching equilibrium).
For experiment [6] the target is unchanged. Put plainly: direct ELISA #1, peptide coated (curves not reaching equilibrium).
For experiment [7], the target named is T2, native IHFNTHI (integration host factor …). Put plainly: SPR Biacore 3000, IHFNTHI immobilized, HuMab as analyte.
Experiment [8] shares this target. Put plainly: SPR Biacore 3000, HuMab immobilized, IHFNTHI as analyte. This is another data set of the same source.
In experiment [9] the target is T3, tail-chimeric peptide IhfA3-IhfB2NTHI (nontypeable Haemophilus influenzae …).
T3 construct: also called IHF(NTHI) tail chimeric peptide; IHFNTHI tail chimeric peptide
T3 peptide: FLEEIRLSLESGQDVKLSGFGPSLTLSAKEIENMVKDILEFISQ
As to the kind of experiment: direct ELISA #2, peptide coated (curves reaching equilibrium).

For experiment [10], the target named is T3, tail-chimeric peptide IhfA3-IhfB2NTHI. As to the kind of experiment: SPR Biacore 3000, peptide immobilized, HuMab as analyte.
Experiment [11] shares this target. Put plainly: direct ELISA #1, peptide coated (curves not reaching equilibrium).
Experiment [12] shares this target. As to the kind of experiment: SPR Biacore 3000, HuMab immobilized, peptide as analyte.

As usually defined, the Kd is the free concentration of one partner at which half of the binding sites on the other are occupied at equilibrium, for simple one-to-one binding. Low values mean a tighter complex, high ones a looser complex. Broadly, the koff is the rate constant with which the complex falls apart. For orientation: kon means a measure of how fast the partners come together. Read a low kon as slow association. One may read the EC50 as the concentration giving half of the maximal effect. A low value points to greater potency.

B1: humanized anti-tip monoclonal antibody, heavy chain SEQ ID NO: 3 and light chain SEQ ID NO: 8 (antibody, V domains shown)
VH: EVKLVQSGAEVKKPGASVKVSCKASGFTFRTYAMSWVRQAPGQRLEWVATIGSDRRHTYYPDKFQGRVTITRDNAKNTLYMELSSLRSEDTAVYYCVGPYDGYYGEFDYWGQGTLVTVSS
VL: DVVMTQSPLSLPVTLGQPASISCRSSQSLLDSDGKTFLNWLQQRPGQSPRRLIYLVSKRDSGVPDRFSGSGSGTDFTLKISRVEAEDVGVYYCWQGTHFPYTFGQGTKLEIKR
notes: also called H10212 (1F8.F1 Humanized HC3) + L10211 (1F8.F1 Humanized LC2)
Take B1: the Kd came out at 7 nM in experiment [1], 20 nM in experiment [3], 245 nM in [4] and 115 nM in experiment [7]. Moreover, the off-rate constant (koff) in experiment [1] is 0.00035 s⁻¹; in experiment [3], 0.0019 s⁻¹; in [4] it was 0.0018 s⁻¹; in [7] it was 0.00021 s⁻¹. The kon in [1] is 51000 M⁻¹ s⁻¹; in experiment [3] it was 95000 M⁻¹ s⁻¹; in experiment [4], 7500 M⁻¹ s⁻¹; in [7], 1800 M⁻¹ s⁻¹. Also, the EC50 was 0.086 µg/mL in experiment [2], 0.0934 µg/mL in [5] and 0.066 µg/mL in [6].

B2: humanized anti-tail monoclonal antibody, heavy chain SEQ ID NO: 5 and light chain SEQ ID NO: 12 (antibody, V domains shown)
VH: EVQLVESGGGLVKPGGSLRLSCAASGFTFSRYGMSWVRQAPGKGLEWVSTISSGGSYTYYTDSVKGRFTISRDNAKNSLYLQMNSLRAEDTAVYYCERHGGDGYWYFDVWGQGTMVTVSS
VL: DIVMTQSPATLSLSPGERATLSCRASQDISNYLNWYQQKPGQAVRLLIYYTSRLHSGIPARFSGSGSGTDYTLTISSLEPEDFAVYFCQQGNPLRTFGGGTKVEIKR
notes: also called H10214 (11E7.C7 Humanized HC2) + L10215 (11E7.C7 Humanized LC3)
On to B2, for which the dissociation constant Kd worked out at 39 nM in experiment [8], 9.1 nM in experiment [10] and 23 nM in [12]. Moreover, the figures for the koff in experiment [8], in experiment [10] and in experiment [12] were 0.0012 s⁻¹, 0.00077 s⁻¹ and 0.00044 s⁻¹, respectively. Moreover, the kon was found to be 33000 M⁻¹ s⁻¹ in [8], 85000 M⁻¹ s⁻¹ in experiment [10] and 20000 M⁻¹ s⁻¹ in experiment [12]. Also, the figures for the concentration giving a half-maximal response (EC50) in experiment [9] and in [11] were 0.0429 µg/mL and 0.015 µg/mL, respectively.

B3: humanized anti-tail monoclonal antibody, heavy chain SEQ ID NO: 6 and light chain SEQ ID NO: 12 (antibody, V domains shown)
VH: EVQLVESGGGLVQPGRSLRLSCTASGFTFSRYGMSWVRQAPGKGLEWVATISSGGSYTYYTDSVKGRFTISRDNAKNILYLQMNSLKTEDTAVYYCERHGGDGYWYFDVWGQGTMVTVSS
VL: DIVMTQSPATLSLSPGERATLSCRASQDISNYLNWYQQKPGQAVRLLIYYTSRLHSGIPARFSGSGSGTDYTLTISSLEPEDFAVYFCQQGNPLRTFGGGTKVEIKR
notes: also called H10215 (11E7.C7 Humanized HC3) + L10215 (11E7.C7 Humanized LC3)
B3: the values for the Kd in experiment [8], in experiment [10] and in [12] were approximately 143 nM, 2.4 nM and 13 nM, respectively. The results for the koff in experiment [8], in experiment [10] and in [12] were 0.0011 s⁻¹, 0.0006 s⁻¹ and 0.0021 s⁻¹, respectively. Besides, the kon in [8] came to 7700 M⁻¹ s⁻¹; in experiment [10], 250000 M⁻¹ s⁻¹; in experiment [12] it was 160000 M⁻¹ s⁻¹. Further, the EC50 stood at 0.0294 µg/mL in [9] and 0.008 µg/mL in [11].
